# Reference: US20020031818A1, “Modification of Mdm2 activity” (priority 2000, published 2002)
# B1: p19^ARF: Mdm2-regulating protein; in vitro translated, bacculovirus-expressed or transfected (protein)
# chain: MGRRFLVTVRIQRAGRPLQERVFLVKFVRSRRPRTASCALAFVNMLLRLERILRRGPHRNPGPGDDDGQRSRSSSSAQLRCRFELRGPHYLLPPGARRSAGRLPGHAGGAARVRGSAGCARCLGSPAARLGPRAGTSRHRAIFAFRWVLFVFRWVVFVYRWERRPDRRA
# Experiments:
# GST-Mdm2 = target: T1, GST-Mdm2 (Homo sapiens, UniProt Q00987); assay: In vitro ubiquitination of GST-Mdm2 (self-ubiquitination); assay type: biochemical; settings: bacculovirus-purified p19ARF added to GST-Mdm2
# T1 construct: made in house
# From the text: GST-Mdm2 was subjected to an in vitro ubiquitination reaction using purified forms of E1, E2 and Ub-HA in the presence of ATP. […] Glutathione bead-coupled GST-Mdm2 in its ubiquitinated or non-ubiquitinated forms was washed and analyzed on immunoblots using antibodies to HA (upper panel). Middle panel depicts the level of Mdm2 expression and the lower panel, the level of p19^ARF added to the reaction.
# [1] = system: p53 transcriptional activity; assay: p21-luc luciferase reporter assay in EJ cells; assay type: cell-based, mouse; settings: EJ cells transfected with p53, p19ARF and p21 promoter luciferase construct
# From the text: FIG. 14A-14E. A. In vitro ubiquitination of Mdm2 is inhibited by p19^ARF. GST-Mdm2 was subjected to an in vitro ubiquitination reaction using purified forms of E1, E2 and Ub-HA in the presence of ATP. Addition of bacculovirus-purified p19^ARF at the indicated concentrations blocked Mdm2 ubiquitination. Glutathione bead-coupled GST-Mdm2 in its ubiquitinated or non-ubiquitinated forms was washed and analyzed on immunoblots using antibodies to HA (upper panel). Middle panel depicts the level of Mdm2 expression and the lower panel, the level of p19^ARF added to the reaction. B. p19^ARF expression increases Mdm2 self-ubiquitination in EJ cells. EJ cells were transfected with the indicated plasmids. Cells were harvested 36 h later and proteins ([…]) were immunoprecipitated using Mdm2 antibodies (2A10). […] The level of p53 immunoprecipitated was monitored in immunoblots using polyclonal antibodies to p53 (middle). […]
# Non-denaturing immunoprecipitation and luciferase assay p53/Mdm2 double null cells (Fuch et al., Oncogene 17:2543-2547, 1998), EJ, NIH3T3 mouse fibroblasts and TIG human fibroblasts were maintained in DMEM (Gibco) supplemented with 10% heat-inactivated fetal bovine serum and antibiotics in 5% CO2 Transfections were performed by lipofection (LipofectaminPlus, GIBCO). […] Luciferase activity was determined using the Promega luciferase assay system (Promega, Madison, Wis.). […]
# T1 sequence (Q00987 whole entry): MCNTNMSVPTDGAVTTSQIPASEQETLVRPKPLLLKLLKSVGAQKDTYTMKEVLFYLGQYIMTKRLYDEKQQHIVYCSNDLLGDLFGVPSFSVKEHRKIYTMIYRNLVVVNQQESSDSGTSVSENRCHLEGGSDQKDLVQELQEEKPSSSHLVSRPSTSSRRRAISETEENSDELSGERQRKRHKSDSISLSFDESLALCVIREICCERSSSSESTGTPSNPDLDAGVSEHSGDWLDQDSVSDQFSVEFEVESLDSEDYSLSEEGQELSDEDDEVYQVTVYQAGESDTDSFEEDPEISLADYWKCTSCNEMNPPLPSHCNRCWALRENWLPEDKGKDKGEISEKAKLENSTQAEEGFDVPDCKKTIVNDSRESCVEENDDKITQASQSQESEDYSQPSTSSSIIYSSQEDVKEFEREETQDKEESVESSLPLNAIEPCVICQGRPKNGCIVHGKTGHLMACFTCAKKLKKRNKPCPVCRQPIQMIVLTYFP
molecule,measurement,setting,value
B1,Mdm2 ubiquitination in vitro,GST-Mdm2,efficient inhibition of Mdm2 ubiquitination in vitro
same,p53 transcriptional activity (p21-luc),[1],corresponding increase
